The values that follow come from US20250195629A1, “SITE-SPECIFIC BRAIN THERAPEUTICS” (William Marsh Rice University, priority 2023, published 2025).

Holding throughout (type): in vivo, mouse
One series concerns c-Fos+ cells in the CPu. Briefly: c-Fos+ cell count at the CPu after behavior test. From the text: To quantify the c-Fos-positive cells related to FIG. 11, the stained coronal sections were initially imaged using a 4× objective in DAPI (nuclei, not shown) and far-red (c-Fos, shown in purple) channels. Within the left striatum region, one or more specific 3×3 binned square areas were selected corresponding to the highest observed AADC fluorescence in the adjacent AADC-stained section. Subsequently, images of these areas were captured using a 40× objective. Corresponding contralateral areas in the right striatum were also captured.
(§1) In FIG. 7, we applied the following brightness (white) thresholds for the corresponding channels: 6045 (DAPI, nuclei, not shown), 15,000 (Cy3, D1R), 16,000 (green, D2R), and 6045 (far-red, c-Fos), with a gamma value of 1. In FIG. 11, we applied a Brightness (White) threshold of 6045 for both DAPI (nuclei, not shown) and far-red (c-Fos) channels, with a Gamma value of 1. The images were then overlayed, and the c-Fos+ cells were manually counted. Similarly, the GFAP+ cells were manually counted, as shown in FIG. 15c and FIG. 17, by applying a Brightness (White) threshold of 5686 and a Gamma value of 1 for both the DAPI (nuclei) and far-red (GFAP, purple) channels.
To address potential bias and validate our counting approach, all c-Fos staining sites from mice in FIG. 11 were independently counted by 4 scorers (A. M., Z. H., C. H. and R. J.). C. […]

Another series relates to GFAP+ astrocytes. As to the kind of experiment: Safety analysis, GFAP staining for astrocytic activation. The conditions noted are these: RAID treatment, FUS+AADC-IKVAV.
Excerpt: Additionally, the brain sections stained for GFAP were imaged using a 4× objective in DAPI (nuclei) and far-red (GFAP) channels. Three square areas were then selected in both the left and right striatum respectively, each with 3×3 binning, for imaging with a 40× objective to quantify GFAP+ cells.
as §1
Adjacent sections were stained separately with an anti-GFAP antibody to examine astrocytic activation. […]

In the next series the test system is brain tissue. As to the kind of experiment: Safety analysis, hematoxylin staining of brain sections. To be noted: RAID approach, FUS+AADC-IKVAV+L-DOPA, behavior study. How it is done: Additionally, the brain sections stained for GFAP were imaged using a 4× objective in DAPI (nuclei) and far-red (GFAP) channels. Three square areas were then selected in both the left and right striatum respectively, each with 3×3 binning, for imaging with a 40× objective to quantify GFAP+ cells. Safety analysis—To investigate potential lesions resulting from the use of FUS-BBBO in the RAID protocol, hematoxylin staining was performed (n=11 mice for FUS alone+L-DOPA group and n=14 mice for FUS+AADC-IKVAV (SEQ ID NO: 23)+L-DOPA group) on the adjacent sections of each representative section used for c-Fos staining, which was associated with behavior analysis as shown in FIG. 11. Hematoxylin staining was conducted according to the following steps: […] (5) This was followed by a 3-minute wash in H2O; (6) A 20-second soak in Bluing Reagent (H&E Staining Kit, Abcam ab245880) was carried out; (7) Another 3-minute wash in H2O followed; […]

On to `N[C@@H](Cc1ccc(O)c(O)c1)C(=O)O` [L-DOPA, reference compound], for which the “change in ipsilateral c-Fos-positive cells vs contralateral site” value in the series on c-Fos+ cells in the CPu (untreated mice or FUS alone, L-DOPA 2 mg/kg i.p.) is “no significant changes”.

B1: AADC-IKVAV: aromatic-L-amino-acid decarboxylase (AADC) protein fused with short peptide IKVAV (SEQ ID NO: 23); CDS SEQ ID NO: 21 (protein)
chain: MRGSHHHHHHGMASMTGGQQMGRDLYDDDDKDPMNASEFRRRGKEMVDYMANYMEGIEGRQVYPDVEPGYLRPLIPAAAPQEPDTFEDIINDVEKIIMPGVTHWHSPYFFAYFPTASSYPAMLADMLCGAIGCIGFSWAASPACTELETVMMDWLGKMLELPKAFLNEKAGEGGGVIQGSASEATLVALLAARTKVIHRLQAASPELTQAAIMEKLVAYSSDQAHSSVERAGLIGGVKLKAIPSDGNFAMRASALQEALERDKAAGLIPFFMVATLGTTTCCSFDNLLEVGPICNKEDIWLHVDAAYAGSAFICPEFRHLLNGVEFADSFNFNPHKWLLVNFDCSAMWVKKRTDLTGAFRLDPTYLKHSHQDSGLITDYRHWQIPLGRRFRSLKMWFVFRMYGVKGLQAYIRKHVQLSHEFESLVRQDPRFEICVEVILGLVCFRLKGSNKVNEALLQRINSAKKIHLVPCHLRDKFVLRFAICSRTVESAHVQRAWEHIKELAADVLRAEREGGSGSSGGSGGSGGSGIKVAV
modifications: misc_feature 1..1602 Synthetic: AADC-IKVAV
In the case of B1, the “increase in ipsilateral c-Fos-positive cells vs contralateral site” value in the series on c-Fos+ cells in the CPu (RAID-treated mice, FUS+AADC-IKVAV+L-DOPA, counted by A. M. and Z. H.) is given as 5.7(±1.8) fold. Also, the “numbers of GFAP+ astrocytes in targeted area vs contralateral site” value with GFAP+ astrocytes is on record as “did not affect”. Also, in the series on brain tissue, the “tissue damage or bleeding by hematoxylin staining” value is “didn't cause observable tissue damage or bleeding”.
